{
  "source": "patent US6815532B2",
  "about": "“ATR-2 cell cycle checkpoint” (ICOS Corporation, priority 1999, dated 2004)",
  "assay_type_in_all_cases": "biochemical",
  "key": {"Atr-2 protein": {"target": "T1, Atr-2 protein (Homo sapiens, UniProt Q96Q15)", "T1 construct": "a region containing the putative kinase domain was subcloned into the mammalian expression vector, pCIneo; made in house; host or cells: 293T cells (transient transfection, anti-FLAG M2 immunoprecipitate on protein A beads)", "assay": "ATR-2 kinase assay, autophosphorylation (immunoprecipitated FLAG-tagged Atr-2 fragment from 293T cells, 32P-ATP, P81 paper)", "conditions": "immunoprecipitate from transfected 293T cells, 30° C. for 30 min", "procedure": "(§1) After 48 hr, cells were harvested and lysed in 0.5 ml lysis buffer (Example 6), and the lysates were precleared by incubation with 50 μl protein A beads for 2 hr at 4° C. The supernatant was immunoprecipitated with 6 μg anti-M2 antibody for one hr at 4° C. and the sample was divided into five aliquots. One hundred μl of the mixture was combined with 10 μl protein A beads for three hr at 4° C., after which the beads were washed twice with lysis buffer and three times in kinase buffer containing 10 mM HEPES, pH 7.4, 10 mM MnCl2, 50 mM NaCl, 10 mM MgCl2, and 5 mM DTT.\n(§2) In the kinase assay, 10 μl protein A beads was mixed with 10 μl PKA and PKC inhibitors from a p79^S6 kinase assay kit (Upstate Biotechnology Inc., Lake Placid, N.Y.) and 10 μl ATP mixture: containing kinase buffer (above) with 10 mM ATP, 3 μCi ^32P-ATP, plus or minus 6 μl myelin basic protein as substrate. Reactions were incubated at 30° C. for 30 min and 20 μl of the reaction mixture was spotted onto P81 paper. The P81 paper was washed three times in 150 mM phosphoric acid and dried, and Cerenkov radiation measured."}, "myelin basic protein": {"test_system": "myelin basic protein", "assay": "ATR-2 kinase assay with exogenous substrate myelin basic protein", "conditions": "immunoprecipitate from transfected 293T cells, 30° C. for 30 min, 32P-ATP", "procedure": "as §1, §2"}, "PHAS-1": {"test_system": "PHAS-1", "assay": "ATR-2 kinase assay with substrate PHAS-1"}, "histone H1": {"test_system": "histone H1", "assay": "ATR-2 kinase assay with substrate histone H1"}},
  "data": [
    {"molecule": "73 kDa Atr-2 truncated protein: FLAG-tagged truncated human Atr-2 containing the putative kinase domain, expressed from pCIneoFLAGATR2 in 293T cells (protein, left off: small tags and cut ends, FLAG-tagged truncated human Atr-2 containing the putative kinase domain, expressed from pCIneoFLAGATR2 in 293T cells) MLVAELRRVTVLWDELWLGVLLQQHMYVLRRIQQLEDEVKRVQNNNTLRKEEKIAIMREKHTALMKPIVFALEHVRSITAAPAETPHEKWFQDNYGDAIENALEKLKTPLNPAKPGSSWIPFKEIMLSLQQRAQKRASYILRLEEISPWLAAMTNTEIALPGEVSARDTVTIHSVGGTITILPTKTKPKKLLFLGSDGKSYPYLFKGLEDLHLDERIMQFLSIVNTMFATINRQETPRFHARHYSVTPLGTRSGLIQWVDGATPLFGLYKRWQQREAALQAQKAQDSYQTPQNPGIVPRPSELYYSKIGPALKTVGLSLDVSRRDWPLHVMKAVLEELMEATPPNLLAKELWSSCTTPDEWWRVTQSYARSTAVMSMVGYIIGLGDRHLDNVLIDMTTGEVVHIDYNVCFEKGKSLRVPEKVPFRMTQNIETALGVTGVEGVFRLSCEQVLHIMRRGRETLLTLLEAFVYDPLVDWTAGGEAGFAGAVYGGGGQQAESKQSKREMEREITRSLFSSRVAEIKVNWFKNRDEMLVVLPKLDGSLDEYLSLQEQLTDVEKLQGKLLEEIEFLEGAEGVDHPSHTLQHRYSEHTQLQTQQRAVQEAIQVKLNEFEQWITHYQAAFNNLEATQLASLLQEISTQMDLGPPSYVPA", "values": [
      {"measurement": "kinase activity: phosphorylation of the Atr-2 protein itself", "setting": "Atr-2 protein", "value": "able to phosphorylate"},
      {"measurement": "kinase activity: phosphorylation of exogenous myelin basic protein substrate", "setting": "myelin basic protein", "value": "able to phosphorylate"},
      {"measurement": "kinase activity: phosphorylation of PHAS-1", "setting": "PHAS-1", "value": "did not phosphorylate"},
      {"measurement": "kinase activity: phosphorylation of histone H1", "setting": "histone H1", "value": "did not phosphorylate"}
    ]}
  ]
}
